Numbered stars: 1 amine (or outer) side, 2 acyl side, 3 side chain; on linkers, the order of the positions; unused ones are H or OH. Side chains are listed from the residue outwards. Ends that are not written are not given here. γGlu = O=C(O)[C@H](CCC(=O)[*:2])N[*:1]
Tests used:
[1] = biological target: rat C1a calcitonin receptor (rat) (UniProt P32214); test: displacement of 125I-human calcitonin from C1a-HEK cell membranes
[2] = biological target: amylin receptor (RNA membranes); test: displacement of 125I-rat amylin from RNA membranes
[3] = biological target: CGRP receptor (SK-N-MC cell membranes) (UniProt Q16602); test: displacement of 125I-human CGRP from SK-N-MC cell membranes
CGRP receptor (SK-N-MC cell membranes), sequence (Q16602 23-461, chain 1 of 2): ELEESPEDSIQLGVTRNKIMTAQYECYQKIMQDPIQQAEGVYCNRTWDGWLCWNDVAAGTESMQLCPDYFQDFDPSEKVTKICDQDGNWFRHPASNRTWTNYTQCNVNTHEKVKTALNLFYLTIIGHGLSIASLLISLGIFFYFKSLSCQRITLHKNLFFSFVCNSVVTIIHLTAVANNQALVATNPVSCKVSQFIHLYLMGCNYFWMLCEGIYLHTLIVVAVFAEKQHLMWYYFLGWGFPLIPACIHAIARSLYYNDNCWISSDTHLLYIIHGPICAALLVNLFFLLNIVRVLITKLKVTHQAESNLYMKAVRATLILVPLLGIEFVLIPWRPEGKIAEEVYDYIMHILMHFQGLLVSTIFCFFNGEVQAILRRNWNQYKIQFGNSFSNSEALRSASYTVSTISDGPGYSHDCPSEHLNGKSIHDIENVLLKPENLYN
CGRP receptor (SK-N-MC cell membranes), sequence (O60894 27-148, chain 2 of 2, further chain): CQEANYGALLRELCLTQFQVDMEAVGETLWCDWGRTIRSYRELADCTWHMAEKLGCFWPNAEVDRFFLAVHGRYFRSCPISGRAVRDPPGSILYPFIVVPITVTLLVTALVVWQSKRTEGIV

IC50 [1] [nM] | IC50 [2] [nM] | IC50 [3] [nM] | Binder
1.49 | 4.01 | 75 | KCNTATCALQRLAQELHRLQTYPRTK([γGlu-C16‑Chain])VGSNTY-NH2 (ends and bridges not checked) [Cmpd 189 ([K^26ε-(γ-Glu(Nα-C16-Chain))]-Cmpd 17)]
0.898 | 1.61 | 100 | KCNTATCALQRLAQELHRLQTYPK([γGlu-C16‑Chain])TNVGSNTY-NH2 (ends and bridges not checked) [Cmpd 188 ([K^24ε-(γ-Glu(Nα-C16-Chain))]-Cmpd 17)]
0.151 | 0.446 | 0.77 | KCNTATCALQRLAQELHRLQK([γGlu-C16‑Chain])YPRTNVGSNTY-NH2 (ends and bridges not checked) [Cmpd 187 ([K^21ε-(γ-Glu(Nα-C16-Chain))]-Cmpd 17)]

Second part, the binder before the results:

Binder | IC50 [1] [nM] | IC50 [2] [nM] | IC50 [3] [nM]
K([γGlu-C16‑Chain])CNTATCALQRLAQELHRLQTYPRTNVGSNTY-NH2 (ends and bridges not checked) [Cmpd 192 ([K^1ε-(γ-Glu(Nα-C16-Chain))]-Cmpd 17)] | 0.07 | – | –
KCNTATCALQRLAQELHK([γGlu-C16‑Chain])LQTYPRTNVGSNTY-NH2 (ends and bridges not checked) [Cmpd 186 ([K^18ε-(γ-Glu(Nα-C16-Chain))]-Cmpd 17)] | 1.07 | 0.806 | 26.3
KCNTATCALQRLAQELHRLQTYPRTNVGSNTY-NH2 (ends and bridges not checked) [Cmpd 17] | 0.095 | – | –
K([γGlu-C16‑Chain])KCNTATCALQRLAQELHRLQTYPRTNVGSNTY-NH2 (ends and bridges not checked) [Cmpd 195 (Kε-(γ-Glu(Nα-C16-Chain))-Cmpd 17)] | 0.046 | – | –
KCNTATCALQK([γGlu-C16‑Chain])LAQELHRLQTYPRTNVGSNTY-NH2 (ends and bridges not checked) [Cmpd 193 ([K^11ε(γ-Glu(Nα-C16-Chain))]-Cmpd 17)] | 0.168 | 0.73 | 46.5

Source: patent publication US20140249076A1, “AMYLIN-CALCITONIN CHIMERIC PEPTIDES CONJUGATED TO DURATION ENHANCING MOIETIES” (AMYLIN PHARMACEUTICALS, LLC, priority 2011, published 2014)
